Results on four molecules are retold here after patent publication US20190040368A1.

The target of this assay is recombinant human iduronate-2 sulfatase (rhIDS) (human) (UniProt P22304). In words: cell-based or functional assay.
Sequence of recombinant human iduronate-2 sulfatase (rhIDS) (human) (P22304 26-550 limits assumed): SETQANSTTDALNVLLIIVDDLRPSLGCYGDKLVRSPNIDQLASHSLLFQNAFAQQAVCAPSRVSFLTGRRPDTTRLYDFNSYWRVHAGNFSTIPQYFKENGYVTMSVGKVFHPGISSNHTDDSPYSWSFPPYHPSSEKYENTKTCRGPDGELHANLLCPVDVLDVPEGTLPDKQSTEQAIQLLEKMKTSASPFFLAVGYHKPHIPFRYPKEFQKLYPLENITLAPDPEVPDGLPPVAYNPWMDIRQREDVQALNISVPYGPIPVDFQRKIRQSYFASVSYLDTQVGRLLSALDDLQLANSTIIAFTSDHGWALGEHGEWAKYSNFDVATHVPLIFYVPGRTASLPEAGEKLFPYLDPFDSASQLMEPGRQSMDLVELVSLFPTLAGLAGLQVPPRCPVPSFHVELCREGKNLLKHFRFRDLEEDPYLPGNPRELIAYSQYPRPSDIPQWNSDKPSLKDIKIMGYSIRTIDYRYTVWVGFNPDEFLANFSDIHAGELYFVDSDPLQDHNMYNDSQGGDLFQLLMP

B1: Hemicentrotus pulcherrimus FGE fusion protein (Lip2pre-HpFGE-6HIS-HDEL) (enzyme)
chain: ENEDINQNISPTQSHTTATTEEELAEARGEEIDSDPTSEGSGAGEGCGCGSSALNRNHDEDALGLALEENLHDHVQEGAALKYSREANDPISMDHPEANVGAFPRTNQMNFIEGGTFRMGTDKAKIYLDGESPSRLVTLDPYYFDVYEVSNSEFELFVNTTSYITEAEKFGDSFVLEARISEEVKKDISQVVAAAPWWLPVKGAEWRHPEGPDSSISSRMDHPVTHISWNDATAYCQWAGKRLPTEAEWENAARGGLNNRLFPWGNKLMPKDHHRVNIWQGEFPKVNTAEDGYEGTCPVTAFEPNGYGLYNTVGNAWEWVADWWTTVHSPESQNNPVGPDEGTDKVKKGGSYMCHISYCYRYRCEARSQNSPDSSACNLGFRCAATNLPEDIPCSNCNDSTPHHHHHHHDEL
Turning to B1, the % FGly (LC-MS, cation exchange purified); OXYY1801 (20° C.), 1c rhIDS, 2c HpFGE was found to be 100%; the % FGly (LC-MS, cation exchange purified); OXYY1801 (24° C.), 1c rhIDS, 2c HpFGE was determined as 100%; the % FGly (LC-MS, cation exchange purified); OXYY1801 (26° C.), 1c rhIDS, 2c HpFGE was determined as 70.4%.

B2: Columba livia Lip2-C1FGE-His6-HDEL fusion construct (enzyme)
chain: MVVIPGGVFTMGTDEPAIQQDGEWPVRKVHVNSFYMDRYEVSNEDFERFVNSTGYVTEAEKFGDSFVFEGMLSEEVKAEIHQAVAAAPWWLPVKGANWKHPEGPDSNISNRMDHPVLHVSWNDAVAFCTWAGKRLPTEAEWEYSCRGGLENRLFPWGNKLQPKGQHYANIWQGVFPTNNTAEDGYKGTAPVTAFPPNGYGLYNIVGNAWEWTADWWAVHHSTEEVHNPKGPSSGTDRVKKGGSYMCHKSYCYRYRCAARSQNTPDSSASNLGFRCAADASPELPHHHHHHHDEL
Take B2: the % FGly (LC-MS); co-expression with ClFGE stood at 100%.

B3: Monodelphis domestica Lip2-MdFGE-His6-HDEL fusion construct (enzyme)
chain: AARGLGSEAGSAAADAAHPAGTCGCGSPQRPGTAAHRYSREANVAEPASAERPVLTSQMAHIPAGVFTMGTDEPQIKQDGEGPARRVRINSFYMDLYEVSNAEFERFVNSTGYVTEAEKFGDSFVFDSMLSDQVKSDIHQAVAAAPWWLPVKGANWRHPEGPDSSILHRRDHPVLHVSWNDAVAYCTWAGKRLPTEAEWEYSCRGGLENRLFPWGNKLQPKGQHYANIWQGEFPVSNTGEDGYQGTAPVTAFPPNGYGLYNIVGNAWEWTSDWWTVHHSADETLDPKGPPSGSDRVKKGGSYMCHKSYCYRYRCAARSQNTPDSSASNLGFRCAADRLPDTHHHHHHHDEL
Regarding B3, the % FGly (LC-MS); co-expression with MdFGE worked out at 100%.

B4: Gallus gallus Lip2-GgFGE-His6-HDEL fusion construct (enzyme)
chain: GKETAPGGNCGCSASRSRGGEREAVATVRRYSAAANDGRSSGRGPMVAIPGGVFTMGTDEPEIQQDGEWPARRVHVNSFYMDQYEVSNQEFERFVNSTGYLTEAEKFGDSFVFEGMLSEEVKAEIHQAVAAAPWWLPVKGANWRQPEGPGSSILSRMDHPVLHVSWNDAVAFCTWAGKRLPTEAEWEYGCRGGLEKRLFPWGNKLQPKGQHYANIWQGVFPTNNTAEDGYKGTAPVTAFPPNGYGLYNIVGNAWEWTSDWWAVHHSADEAHNPKGPSSGTDRVKKGGSYMCHKSYCYRYRCAARSQNTPDSSASNLGFRCAADALPDPQHHHHHHHDEL
On to B4, for which the % FGly (LC-MS); co-expression with GgFGE is 78%.
